Measured values reported in patent US20160024208A1 (Regeneron, published 2016).
Changes are numbered by the printed parent chain.

T1: Native Nav1.7 (3-1) peptide, rat (rat)
T1 construct: Synthetic peptide; also called Rat Nav1.7 3-1 native
T1 peptide: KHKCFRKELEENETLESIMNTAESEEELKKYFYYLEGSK

T2: N-Term Biotin-Nav1.7 (3-1) peptide, human (human, not fully specified; N-terminal biotin attached via a G4S linker)
T2 construct: ELISA peptide
T2 peptide: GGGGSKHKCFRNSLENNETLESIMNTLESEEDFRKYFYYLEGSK

T3: N-Term Biotin Nav1.7 (3-1) peptide, mouse (mouse, not fully specified; N-terminal biotin attached via a G4S linker)
T3 construct: Synthetic peptide; also called Mouse Nav1.7 3-1 N-term biotin
T3 peptide: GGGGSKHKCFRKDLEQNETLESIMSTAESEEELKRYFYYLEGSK

T4: N-Term Biotin Nav1.7 (3-1) peptide, mulatta (mulatta (monkey), not fully specified; N-terminal biotin attached via a G4S linker)
T4 construct: Synthetic peptide; also called Mulatta Nav1.7 3-1 N-term biotin; monkey
T4 peptide: T2 peptide with F10V, R11Q, E15V

T5: C-term Biotin Nav1.7 (3-1) peptide, human (human, not fully specified; C-terminal biotin attached via a G4S linker)
T5 construct: Synthetic peptide; also called Human Nav1.7 3-1 C-term biotin
T5 peptide: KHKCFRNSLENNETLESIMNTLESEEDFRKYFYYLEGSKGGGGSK

T6: Native Nav1.7 (3-1) peptide, human (human)
T6 construct: Synthetic peptide (Celtek), unbiotinylated; also called Human Nav1.7 3-1 native; Nav1.7 3-1 native peptide
T6 peptide: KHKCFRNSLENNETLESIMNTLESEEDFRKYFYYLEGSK

B1: H1M834N (antibody, V domains shown)
VH: QVQLVESGGGVVQPGRSQRLSCAASGFTFSHYGMHWVRQAPGKGLEWVAVISYDGNNKHYADSVKGRFTTSRDNSKNTLFLQMNSLRAEDTAVYYCARGYSGYVLDYWGQGTLVTVSS
VL: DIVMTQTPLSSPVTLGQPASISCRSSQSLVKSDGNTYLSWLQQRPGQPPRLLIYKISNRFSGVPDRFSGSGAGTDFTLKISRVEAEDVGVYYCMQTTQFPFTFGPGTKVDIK
B2: H1M839N (antibody, V domains shown)
VH: QVQLVESGGGVVQPGRSLRLSCAASGFTFSNYGMHWVRQAPGKGLEWVAVTSYDGSNKHYADSVKGRFSTSRDNPKNTLYLQMDSLRGEDTAVYYCARGYSGFVLDNWGQGTLVTVSS
VL: DIVMTQTPLSSPVTLGQPASISCRSSQSLVKSDGNTYLSWLQQRPGQPPRLLIYKISNRFSGVPDRFSGSGAGTDFTLKISRVEAEDVGIYYCMQTTQFPFTFGPGTKVDIK
B3: H1M875N (antibody, V domains shown)
VH: B1 VH
VL: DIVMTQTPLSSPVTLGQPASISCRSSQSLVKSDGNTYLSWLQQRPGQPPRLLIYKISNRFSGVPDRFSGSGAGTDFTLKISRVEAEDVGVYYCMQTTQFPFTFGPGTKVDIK
notes: also called H1H875N
B4: H1H1008B (antibody, V domains shown)
VH: EVQLVQSGPGLVKSSETLSLKCTVSGGSISSSGYYWGWIRQPPGKGLEWIGSIHRSGSTFYNPSLKSRVTISVDTSKSQFSLRLTSVTAADTSVYFCGRHGRDYYYGMDVWGQGTTVTVSS
VL: DIQMTQSPSSVSASVGDRVTITCRSSQDINNWLVWYQQKPGKAPKVLIYGASRLQSGVPSRFSGSGSGTDFTLTISSLQPEDFATYYCQQANSFPLTFGGGTKLEIKR
notes: Fully human antibody; also called H4H1008B
B5: H4H367B (antibody, V domains shown)
VH: QVQLVQSGGGVVQPGRSLRLSCAASGFSFSSFGMHWVRQAPGKGLEWVAVISYGGINKHYSDSVKGRFTISRDDSKNTLYLQMNSLRAEDTAVYYCAKREGYRYAYDYWGQGTLVTVSS
VL: DIQMTQSPSSLSASVGDRVTITCRASQGISNYLAWFQQKPGKAPKSLIYGASSLQSGVPSKFSGSGSGTDFTLTISSLQPEDFATYYCQQYNSYPLTFGGGTKVEIKR
B6: H4H397B (antibody, V domains shown)
VH: QVQLVQSGGGVVQPGRSLRLSCAASGFTFSSYGMHWVRQAPGKGLEWVALISYAGINEYYADSVKGRFTISRDDSKNTLYLQMNSLRVEDTAVYYCAKSRGYSYGLGYWGQGTLVTVSS
VL: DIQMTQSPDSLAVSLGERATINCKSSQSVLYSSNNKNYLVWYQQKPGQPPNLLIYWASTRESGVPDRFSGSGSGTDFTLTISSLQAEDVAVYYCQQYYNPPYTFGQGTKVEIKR

Target: T1, Native Nav1.7 (3-1) peptide, rat
Test: ELISA on coated peptide, antibody 1 ug/ml, OD450 grade
Experimental: (§1) Anti-Naᵥ 1.7 antibodies were tested for their ability to bind to the Naᵥ 1.7 peptides. The various peptides were coated overnight onto 96-well Nunc Immunosorp plates at a concentration of 4 μg/mL in PBS, followed by blocking for 1 hour in a suitable blocking agent. For biotinylated peptides, avidin was first coated on Nunc Immunosorp plates at 2 μg/mL in PBS overnight, followed by blocking as described, and the plate was then coated with biotinylated peptides at a concentration of 0.4 μg/mL and incubated for 1 hour at room temperature. Purified anti-Naᵥ 1.7 antibodies were diluted to a final concentration of 0.1 μg/mL and 1.0 μg/mL and added to the wells of the coated microtiter plates followed by incubation for 1 hour at room temperature. Bound antibodies were detected with horseradish peroxidase (HRP) conjugated anti-mouse or anti-human IgG (Jackson Immuno Research Lab, West Grove, Pa.) depending on the antibody species and developed by colorimetric response using tetramethylbenzidine (TMB) substrate (BD Biosciences). Absorbance was read at OD₄₅₀ on a plate reader for 0.1 second.
(§2) Values in Table 11 represent absolute binding ranges (at OD450) to plate-coated peptides for antibodies added at 1 μg/ml as follows: OD450<0.2: −; 0.2<OD450<1: +; 1<OD450<2: ++; 2<OD450<4: +++; NT: Not Tested.

Row | Binder | OD450
1 | B1 | 2 to 4 od
2 | B2 | 2 to 4 od
3 | B3 | 2 to 4 od
4 | B4 | 2 to 4 od
5 | B5 | 2 to 4 od
6 | B6 | 2 to 4 od

Target: T2, N-Term Biotin-Nav1.7 (3-1) peptide, …
Test: as above
Experimental: as §1, §2

Row | Binder | OD450
7 | B1 | 2 to 4 od
8 | B2 | 2 to 4 od
9 | B3 | 2 to 4 od
10 | B4 | 2 to 4 od
11 | B5 | 2 to 4 od
12 | B6 | 2 to 4 od

Target: T3, N-Term Biotin Nav1.7 (3-1) peptide, …
Test: as above
Experimental: as §1, §2

Row | Binder | OD450
13 | B1 | 1 to 2 od
14 | B2 | 2 to 4 od
15 | B3 | 2 to 4 od
16 | B4 | 2 to 4 od
17 | B5 | 2 to 4 od
18 | B6 | 2 to 4 od

Target: T4, N-Term Biotin Nav1.7 (3-1) peptide, …
Test: as above
Experimental: as §1, §2

Row | Binder | OD450
19 | B1 | 2 to 4 od
20 | B2 | 2 to 4 od
21 | B3 | 2 to 4 od
22 | B4 | 2 to 4 od
23 | B5 | 2 to 4 od
24 | B6 | 2 to 4 od

Target: T7, full-length human Nav1.7 fused at its N-terminus to GFP, expressed in HEK293 cells (human, UniProt Q15858 1-1988)
T7 construct: Voltage-gated sodium channel alpha subunit; In the Western blot it stood as denatured cell lysate; also called hNav 1.7-GFP-HEK293; Nav 1.7-GFP-HEK293; not shown: green fluorescent protein (GFP) at the N-terminus
Test: flow cytometry; % stained hNav1.7-GFP-HEK293 minus parental HEK293
Experimental: The binding of anti-Naᵥ 1.7 human antibodies to full-length Naᵥ 1.7 expressed in HEK293 cells was determined by flow cytometry (FACS). HEK293 cells were stably-transfected with full-length human Nav1.7 fused at its N-terminus to the green fluorescent protein (GFP) to generate cell line hNaᵥ 1.7-GFP-HEK293. Antibody binding to the transfected cells overexpressing Naᵥ 1.7 was compared to binding to the parental HEK293 cell line. To perform the binding experiments, adherent cells were collected using 1 mM EDTA in PBS, washed and re-suspended in cold PBS containing 5% FBS. For each binding experiment, the anti-Naᵥ 1.7 antibody (at concentrations ranging from 1 nM to 13 nM), was added to 250,000 cells in 500 μL of PBS with 5% FBS. After incubation for 20 minutes on ice, the secondary antibody, recognizing either human-Fc and conjugated to cyanine 5 (Cy5) or recognizing mouse-Fc and conjugated to allophyocyanin (APC), was then added to the cell mixture at a final secondary antibody concentration of 1.7 nM. After incubating for 20 minutes on ice, the cells were resuspended in PBS+5% FBS and then sorted and analyzed on a flow cytometer to determine relative binding by the candidate antibodies. For FACS analysis, gating was applied to examine only healthy live cells in the antibody binding experiments, and percentage stained was recorded. Staining of secondary antibodies alone to Naᵥ 1.7-GFP-HEK293 cells gave low background signals (1-2%). Specific binding was measured as the percent binding to Naᵥ 1.7-GFP-HEK293 cells minus percent binding to parental HEK293 cells.

Row | Binder | % Binding Nav1.7
25 | B1 | 4.8%
26 | B2 | 5.1%
27 | B3 | 5.9%
28 | B4 | 12.5%
29 | B5 | 15.8%

Target: T5, C-term Biotin Nav1.7 (3-1) peptide, …
Test: SPR, captured biotin-peptide, antibody analyte
Experimental: (§3) The binding affinities of anti-Naᵥ 1.7 antibodies to Naᵥ 1.7 loop peptides were determined by Biacore. For monovalent kinetic experiments, antibodies were captured through the Fc region via a goat anti-Fc-coupled biosensor surface, and the peptides (as analyte) were injected over this captured antibody surface. For bivalent (avidity-driven) kinetic experiments, biotinylated peptides corresponding to the Naᵥ 1.7 3-1, 3-3, or paddle loop sequences were captured on a NeutrAvidin sensor surface, and anti-Naᵥ 1.7 antibodies (as analyte) were injected over this surface. Following the capture step, each analyte was individually injected at several concentrations over its respective capture surface, and changes in bound surface units (RU) were monitored. The dissociation rate is independent of the concentration of analyte used in the experiment, and the dissociation rate constant (kd) was determined from the change in antibody-bound analyte RU over time. The Biacore kinetic data were obtained using a double referencing procedure. The double referencing was conducted by first subtracting any interaction of the analyte over the reference surface (i.e., the anti-Fc coupled surface alone or the NeutrAvidin surface alone), thereby correcting for nonspecific binding to capture surface and for refractive index changes. Control buffer injections (no analyte) over the antibody- or peptide-captured surfaces were also performed to allow subtraction of RU signal changes resulting from the natural dissociation of captured binding partner from the sensor surface. The kinetic parameters were obtained by globally fitting the data for all concentrations tested for a given peptide or antibody to a 1:1 binding model using Biacore T100 Evaluation Software version 2.0.2. The KD was calculated as the dissociation rate constant divided by the association rate constant (KD=kd/kₐ). The dissociative half-life (t_{1/2}) was calculated from the dissociation rate constant (t_{1/2}=In2/kd).

Row | Binder | Kd | t1/2
30 | B1 | 0.751 nM | 82.5 min
31 | B2 | 0.692 nM | 137 min
32 | B3 | 0.78 nM | 87.2 min
33 | B4 | 0.123 nM | 84.2 min
34 | B5 | 0.341 nM | 94 min
35 | B6 | 0.299 nM | 206 min

Target: T1, Native Nav1.7 (3-1) peptide, rat
Test: SPR, captured antibody, peptide analyte
Experimental: as §3

Row | Binder | Kd | t1/2
36 | B1 | 10.2 nM | 2.3 min
37 | B2 | 7.11 nM | 3.2 min
38 | B3 | 6.7 nM | 3 min
39 | B4 | 4.67 nM | 3.1 min
40 | B5 | 88 nM | 0.42 min
41 | B6 | 14.2 nM | 3.3 min

Target: T6, Native Nav1.7 (3-1) peptide, human
Test: SPR, captured antibody, peptide analyte
Experimental: as §3

Row | Binder | Kd | t1/2
42 | B1 | 5.53 nM | 12 min
43 | B2 | 3.32 nM | 18.2 min
44 | B3 | 5.85 nM | 12.5 min
45 | B4 | 4.31 nM | 4 min
46 | B5 | 4.67 nM | 10.5 min
47 | B6 | 2.37 nM | 34 min

Target: T3, N-Term Biotin Nav1.7 (3-1) peptide, …
Test: SPR, captured antibody, peptide analyte
Experimental: as §3

Row | Binder | Kd | t1/2
48 | B1 | 19.2 nM | 2.8 min
49 | B2 | 15.1 nM | 3.1 min
50 | B3 | 12 nM | 3.2 min
51 | B4 | 14.8 nM | 1.3 min
52 | B5 | 107 nM | 0.59 min
53 | B6 | 43.5 nM | 3.92 min

Target: T4, N-Term Biotin Nav1.7 (3-1) peptide, …
Test: SPR, captured antibody, peptide analyte
Experimental: as §3

Row | Binder | Kd | t1/2
54 | B1 | 2.39 nM | 20.3 min
55 | B2 | 1.47 nM | 28.7 min
56 | B3 | 1.89 nM | 26.5 min
57 | B4 | 1.11 nM | 17.5 min
58 | B5 | 0.63 nM | 23.7 min
59 | B6 | 0.097 nM | 289 min

Target: T7, full-length human Nav1.7 fused at its …
Test: cell-based or functional assay

Row | Binder | Current blocking (Average % inhibition), IonWorks Quattro, 223 nM antibody
60 | B1 | -14%
61 | B2 | 13%
62 | B3 | 25%
63 | B4 | 38%
64 | B5 | -35%
65 | B6 | -50%
